Test results as given in patent publication US20060211627A1 (BURNHAM INSTITUTE, published 2006).
Square brackets hold non-standard residues; d marks the D form. Ends that are not written are not given here. 2Nal = N[C@@H](Cc1ccc2ccccc2c1)C(=O)O; d2Nal = N[C@H](Cc1ccc2ccccc2c1)C(=O)O; 2Thi = N[C@@H](Cc1cccs1)C(=O)O; Cha = N[C@@H](CC1CCCCC1)C(=O)O; d2Thi = N[C@H](Cc1cccs1)C(=O)O; dCha = N[C@H](CC1CCCCC1)C(=O)O

Assays:
GST-BIR3RING (human) = GST-BIR3RING (human) (UniProt P98170); experiment: fluorescence polarization competition; unlabeled SMAC 0 to 50 µM against 400 nM rhodamine-SMAC and 1 µM GST-BIR3RING
GST-XIAP = GST-XIAP (human, UniProt P98170 1-497); experiment: cell-based or functional assay
Chain of GST-XIAP (P98170 whole entry): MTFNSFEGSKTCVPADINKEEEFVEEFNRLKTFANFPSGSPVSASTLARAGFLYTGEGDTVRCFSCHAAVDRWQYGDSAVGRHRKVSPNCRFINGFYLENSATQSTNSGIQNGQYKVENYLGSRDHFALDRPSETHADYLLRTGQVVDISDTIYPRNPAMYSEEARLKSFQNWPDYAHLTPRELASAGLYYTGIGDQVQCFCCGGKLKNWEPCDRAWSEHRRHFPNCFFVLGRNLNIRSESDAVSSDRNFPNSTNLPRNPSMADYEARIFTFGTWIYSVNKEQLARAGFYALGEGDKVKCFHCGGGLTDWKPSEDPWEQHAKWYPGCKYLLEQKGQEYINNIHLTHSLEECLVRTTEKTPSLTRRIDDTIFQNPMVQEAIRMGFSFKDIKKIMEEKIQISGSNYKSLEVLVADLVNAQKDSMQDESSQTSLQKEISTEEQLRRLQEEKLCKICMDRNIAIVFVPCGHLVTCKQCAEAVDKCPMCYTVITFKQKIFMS

Chain of GST-BIR3RING (human) (P98170 243-497): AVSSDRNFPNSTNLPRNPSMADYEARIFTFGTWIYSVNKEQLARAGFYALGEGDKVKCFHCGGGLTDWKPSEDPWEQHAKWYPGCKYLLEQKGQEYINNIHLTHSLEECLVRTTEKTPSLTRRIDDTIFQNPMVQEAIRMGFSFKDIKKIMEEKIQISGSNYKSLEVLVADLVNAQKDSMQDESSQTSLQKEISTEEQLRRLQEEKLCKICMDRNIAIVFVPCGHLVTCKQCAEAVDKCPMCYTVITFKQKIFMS

Molecule: unlabelled SMAC (peptide)
- IC50 (GST-BIR3RING (human)): 21 µM

Molecule: AWW[2Thi] (also: some Trp may retain formyl protecting groups) [TPI 1332/1352-1]
- ratio of Vmax with and without peptide, caspase derepression assay (GST-XIAP): > 2.4

Molecule: A[dW]W[2Thi] [TPI 1352-6]
- ratio of Vmax with and without peptide, caspase derepression assay (GST-XIAP): > 2.4

Molecule: [Cha][d2Nal]W[2Thi] [TPI 1332-41]
- ratio of Vmax with and without peptide, caspase derepression assay (GST-XIAP): > 2.4

Molecule: [2Nal][dCha]W[dW] [TPI 1352-66]
- ratio of Vmax with and without peptide, caspase derepression assay (GST-XIAP): > 2.4

Molecule: A[dW]W[2Thi] [TPI 1332/1352-47]
- ratio of Vmax with and without peptide, caspase derepression assay (GST-XIAP): > 2.4

Molecule: [2Nal][d2Thi][dF][dW] [TPI 1352-72]
- ratio of Vmax with and without peptide, caspase derepression assay (GST-XIAP): > 2.4
